The record followed here is patent publication US20260028407A1 (FIBROGEN, published 2026).

Numbering of substitutions follows the chain as printed. Like-named read-outs stand apart in the source and are kept apart here.

Test [1] has as its target T1, human Galectin-9 (Gal9) (human, UniProt O00182-2 1-323, limits assumed).
T1 construct: also called human Gal9
Kind of test: SPR.

For test [2], the target named is T1, human Galectin-9 (Gal9). Description: solution equilibrium assay (SEA), human Gal9.
Test [3] has as its target T1, human Galectin-9 (Gal9). Description: SPR. The source holds these as a separate data set.
The target in test [4] is T2, mouse Galectin-9 (Gal9) (mouse, UniProt O08573-2 2-322, limits assumed).
T2 construct: also called mouse Gal9
T2 sequence (O08573 other isoform, or with tags, fused parts or gaps limits assumed): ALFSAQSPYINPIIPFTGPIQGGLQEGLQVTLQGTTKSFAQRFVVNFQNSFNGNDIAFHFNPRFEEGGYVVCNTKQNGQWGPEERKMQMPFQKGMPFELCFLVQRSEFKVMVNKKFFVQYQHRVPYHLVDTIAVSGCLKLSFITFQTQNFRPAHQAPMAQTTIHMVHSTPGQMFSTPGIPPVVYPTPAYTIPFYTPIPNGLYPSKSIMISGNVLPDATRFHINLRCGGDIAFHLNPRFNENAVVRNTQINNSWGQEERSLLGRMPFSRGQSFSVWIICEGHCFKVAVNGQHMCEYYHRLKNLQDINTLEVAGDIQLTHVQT
Description: solution equilibrium assay (SEA), mouse Gal9.

In test [5] the target is T2, mouse Galectin-9 (Gal9). Kind of test: solution equilibrium assay (SEA), mouse Gal9. The source holds these as a separate data set.
Test [6] deals with T3, Gal9 as added in the T-cell apoptosis and TIM-3 dimerization assays (species not stated). Kind of test: cell-based or functional assay.
T3 sequence (O00182 whole entry): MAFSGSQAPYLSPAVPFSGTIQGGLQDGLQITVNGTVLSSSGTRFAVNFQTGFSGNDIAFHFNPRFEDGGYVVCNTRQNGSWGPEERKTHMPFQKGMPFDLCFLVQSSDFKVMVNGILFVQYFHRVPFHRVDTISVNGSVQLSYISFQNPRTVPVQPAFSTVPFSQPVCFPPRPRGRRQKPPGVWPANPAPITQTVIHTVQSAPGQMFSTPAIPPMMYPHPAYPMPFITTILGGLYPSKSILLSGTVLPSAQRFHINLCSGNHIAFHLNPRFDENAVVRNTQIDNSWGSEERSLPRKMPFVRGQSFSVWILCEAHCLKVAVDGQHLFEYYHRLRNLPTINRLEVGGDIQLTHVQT
In test [7] the target is T1, human Galectin-9 (Gal9). Kind of test: solution equilibrium assay (SEA), human Gal9. The source holds these as a separate data set.
For test [8], the target named is T3, Gal9 as added in the T-cell apoptosis …. Kind of test: cell-based or functional assay. The source holds these as a separate data set.
The target is the same in test [9]. Kind of test: cell-based or functional assay. The source holds these as a separate data set.
Test [10] has the same target. Kind of test: cell-based or functional assay. This is another data set of the same source.

T1 sequence (O00182 other isoform, or with tags, fused parts or gaps limits assumed): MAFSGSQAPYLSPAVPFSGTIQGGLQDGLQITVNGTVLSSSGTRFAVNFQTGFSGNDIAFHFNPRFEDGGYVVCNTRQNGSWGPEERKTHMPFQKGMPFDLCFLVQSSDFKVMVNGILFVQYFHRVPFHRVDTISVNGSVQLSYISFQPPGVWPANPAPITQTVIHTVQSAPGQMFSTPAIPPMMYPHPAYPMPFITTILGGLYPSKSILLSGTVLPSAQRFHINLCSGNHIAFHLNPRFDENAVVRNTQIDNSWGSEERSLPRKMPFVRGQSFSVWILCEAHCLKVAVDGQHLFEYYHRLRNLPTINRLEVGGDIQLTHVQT

B1: antibody A (Ab A), HFB9-2hz11, parental humanized anti-Gal9 antibody (antibody, V domains shown)
VH: QVQLVQSGAEVKKPGASVKVSCKASGYTFTEYTIHWVRQAPGQGLEWMGWFYPGSGSTEYAQKFQGRVTMTADTSISTAYMELSRLRSDDTAVYFCERHGGYDGFDYWGQGTTVTVSS
VL: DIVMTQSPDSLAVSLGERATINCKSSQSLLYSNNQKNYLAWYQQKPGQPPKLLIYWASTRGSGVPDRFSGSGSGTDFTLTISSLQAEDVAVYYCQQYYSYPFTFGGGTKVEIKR
notes: also called antibody Ab A
Take B1: the Kd with human Galectin-9 (Gal9) [1] is 4.9 nM; with human Galectin-9 (Gal9) [2], 3.1 nM; with human Galectin-9 (Gal9) [3], 7.18 nM; with mouse Galectin-9 (Gal9) [4], 49 nM; in the test with mouse Galectin-9 (Gal9) [5], 49 nM; with human Galectin-9 (Gal9) [7], 3.1 nM. Besides, the results for the koff in the test with human Galectin-9 (Gal9) [1] and with human Galectin-9 (Gal9) [3] were 0.00077 s⁻¹ and 0.0099 s⁻¹, respectively. For the same molecule, the kon was 160000 M⁻¹ s⁻¹ with human Galectin-9 (Gal9) [1] and 1.4e+06 M⁻¹ s⁻¹ in the test with human Galectin-9 (Gal9) [3]. For the same molecule, in test [6], the “IC50 of reducing Gal9-induced CD4+ T cell apoptosis” value worked out at 18.7 nM.

B2: antibody 003 (Ab 003), affinity matured anti-Gal9 antibody (antibody, V domains shown)
VH: B1 VH with T28P, T30S, E31S, R98V
VL: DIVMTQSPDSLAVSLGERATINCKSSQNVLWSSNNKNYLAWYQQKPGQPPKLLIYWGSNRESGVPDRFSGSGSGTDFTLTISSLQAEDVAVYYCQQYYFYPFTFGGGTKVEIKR
notes: Full HC/LC entries; they may hold a signal peptide
Consider B2, for which, in [8], the “IC50 (read off the curve), inhibition of Gal9-induced TIM-3 dimerization” value was about 20 nM.

B3: antibody 001 (Ab 001), affinity matured anti-Gal9 antibody (antibody, V domains shown)
VH: B1 VH with T28E, E59W
VL: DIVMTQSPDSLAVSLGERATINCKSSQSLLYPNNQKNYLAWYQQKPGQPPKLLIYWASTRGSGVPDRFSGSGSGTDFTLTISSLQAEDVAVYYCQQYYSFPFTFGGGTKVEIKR
notes: as for B2
For B3, in test [8], the “IC50 (read off the curve), inhibition of Gal9-induced TIM-3 dimerization” value is about 20 nM and the “IC50, inhibition of Gal9-induced TIM-3 dimerization (RLU, enzyme fragment complementation)” value was found to be 25 nM. In addition, in test [9], the “IC50 (read off the curve), inhibition of Gal9-induced CD4+ T cell apoptosis” value is about 6 nM and the “IC50, inhibition of Gal9-induced CD4+ T cell apoptosis (% AnnexinV+PI+ cells)” value was 6.1 nM. Besides, in test [6], the “IC50 of reducing Gal9-induced CD4+ T cell apoptosis” value came out at 1.9 nM. The “IC50, inhibition of Gal9-induced CD8+ T cell apoptosis (% AnnexinV+PI+ cells)” value in [10] was 1.34 nM.
